In article PMC5007439:

Biological target: T1, bacteriophage MS2 coat protein (bacteriophage MS2), P03612
T1 chain: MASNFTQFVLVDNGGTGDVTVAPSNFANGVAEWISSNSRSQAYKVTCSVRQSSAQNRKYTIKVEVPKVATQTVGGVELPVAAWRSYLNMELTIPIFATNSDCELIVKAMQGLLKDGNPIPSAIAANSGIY
Assay: cryo-EM structure; single particle cryo-EM of purified MS2 virions (coat protein, A-protein and RNA genome); icosahedral reconstruction at 4.1 Å and asymmetric reconstruction at 8.7 Å
Settings: remark: other sources report otherwise

B1: bacteriophage MS2 coat protein, P03612 1-130 (natural protein)
chain: MASNFTQFVLVDNGGTGDVTVAPSNFANGVAEWISSNSRSQAYKVTCSVRQSSAQNRKYTIKVEVPKVATQTVGGVELPVAAWRSYLNMELTIPIFATNSDCELIVKAMQGLLKDGNPIPSAIAANSGIY
- stoichiometry N: 178 copies
